Where no end group is shown, it is not given here.
Key:
[1] = molecular target: T1, IRE1αLDΔ308–357 mutant (human, UniProt O75460 24-443, Δ308–357); assay: MST
T1 sequence: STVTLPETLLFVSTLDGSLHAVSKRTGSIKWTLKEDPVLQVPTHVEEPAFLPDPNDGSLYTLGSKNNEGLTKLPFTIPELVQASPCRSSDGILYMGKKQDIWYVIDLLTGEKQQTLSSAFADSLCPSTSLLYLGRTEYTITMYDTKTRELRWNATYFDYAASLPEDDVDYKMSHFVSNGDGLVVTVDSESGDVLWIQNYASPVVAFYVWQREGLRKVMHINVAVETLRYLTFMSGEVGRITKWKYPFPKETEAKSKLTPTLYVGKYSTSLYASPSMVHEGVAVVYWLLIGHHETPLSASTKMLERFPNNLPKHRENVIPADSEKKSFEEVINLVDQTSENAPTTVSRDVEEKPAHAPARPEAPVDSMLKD

[2] = molecular target: T1, IRE1αLDΔ308–357 mutant; assay: […]

B1: His6-CTxA1 (enzymatic A1 chain of the cholera toxin A subunit) (domain or fragment)
chain: NDDKLYRADSRPPDEIKQSGGLMPRGQSEYFDRGTQMNINLYDHARGTQTGFVRHDDGYVSTSISLRSAHLVGQTILSGHSTYYIYVIATAPNMFNVNDVLGAYSPHPDEQEVSALGGIPYSQIYGWYRVHFGVLDEQLHRNRGYRDRYYSNLDIAPAADGYGLAGFPPEHRAWREEPWIHHAPPGCGNAPRSS
- binding result [1]: binds

Binder: IYGWYRVHFGVLDEQLHR (also: 5-FAM labelled, position not given here) [CTxA_(I124-R141) peptide, 5-FAM labelled]
- binding result [2]: binds
